Experiments:
[1] = biological target: Endogenous NSF of human aortic endothelial cells (HAEC) (human) (UniProt P46459); assay: cell-based or functional assay
[2] = biological target: Recombinant RGS-(His)6-NSF (N-ethylmaleimide sensitive factor), wild-type (UniProt P18708); assay: cell-based or functional assay
Chain of Recombinant RGS-(His)6-NSF (N-ethylmaleimide sensitive factor), wild-type (P18708 other isoform, or with tags, fused parts or gaps limits assumed): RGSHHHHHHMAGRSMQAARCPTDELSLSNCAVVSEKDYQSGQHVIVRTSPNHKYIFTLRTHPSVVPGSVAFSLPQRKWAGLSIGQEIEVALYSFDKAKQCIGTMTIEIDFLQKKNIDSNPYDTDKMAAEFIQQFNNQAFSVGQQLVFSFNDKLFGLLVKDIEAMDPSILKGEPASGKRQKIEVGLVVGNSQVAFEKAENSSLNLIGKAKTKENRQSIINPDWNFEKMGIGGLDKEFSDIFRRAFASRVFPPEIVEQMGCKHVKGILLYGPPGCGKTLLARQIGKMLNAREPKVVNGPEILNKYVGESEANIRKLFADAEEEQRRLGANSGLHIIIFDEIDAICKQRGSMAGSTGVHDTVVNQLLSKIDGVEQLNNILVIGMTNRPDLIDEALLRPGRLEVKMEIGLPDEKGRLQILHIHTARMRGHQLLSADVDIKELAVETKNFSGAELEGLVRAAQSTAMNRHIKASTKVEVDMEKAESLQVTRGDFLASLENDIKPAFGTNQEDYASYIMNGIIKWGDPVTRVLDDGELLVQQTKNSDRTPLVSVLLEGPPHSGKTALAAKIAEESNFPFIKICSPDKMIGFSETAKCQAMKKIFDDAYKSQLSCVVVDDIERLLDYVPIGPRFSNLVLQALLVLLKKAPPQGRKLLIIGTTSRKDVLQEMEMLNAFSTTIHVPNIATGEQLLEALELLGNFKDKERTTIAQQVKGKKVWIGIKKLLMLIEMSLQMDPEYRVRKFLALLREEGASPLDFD

TAT-NSF81 (peptide)
IC50% of endothelial exocytosis (vWF release) [1]: 1 to 10 µM
IC50% of NSF ATPase activity [2]: 1 to 10 µM
